This is an account of results in patent publication US20210324080A1 (JIANGSU HUAIYU PHARMACEUTICAL, published 2021).

First the molecules themselves.
B1: 97A8D1 fully human CTLA-4 antibody (human IgG1, kappa) (antibody, V domains shown)
VH: QVQLVESGGGVVQPGRSLRLSCVASGFTFNNYGMNWVRQAPGKGLEWVAVIWYGGRNKFYADSVKGRFTISRDNSKNTLYLEMNSLRAEDTAVYYCARADWGGWFDPWGQGTLVTVSS
VL: EIVLTQSPGTLSLSPGERATLSCRASQSVSSTYLAWYQQKPGQAPRLLIHGAFSRATGIPDRFSGSGSGPDFTLTISRLEPEDFAVYYCQQYGTSPFTFGPGTKVDIK
notes: also called mAb49; mAb049
B2: 31C12F3 fully human CTLA-4 antibody (human IgG1, kappa) (antibody, V domains shown)
VH: QVQLVESGGGVVQPGRSLILSCAASGFTFSSYGMHWVRQAPGKGLEWVAVVWYDGSNKYYADSVKGRFTISRDNSKNTLYLQMSSLRAEDTAVYYCARGGIVVPGLFEYWGQGSLVTVSS
VL: DIQMTQSPSSLSASVGDRVAITCRTSQSISNLLNWYQQKPGKAPELLIYAPSSFQSGVPSRFRGSGSGTDFTLTISSLQPEDFATYYCQQSYSTPFTFGPGTKVDIK
notes: also called mAb010
B3: 92C8B6 fully human CTLA-4 antibody (human IgG1, kappa) (antibody, V domains shown)
VH: QVQLVESGGGVVQPGRSLRLSCAASGFTFSNFGMHWVRQAPGKGLEWVAVIWYDGSNKYYADSVKGRFTISRDNSKNTLFLQMNGLRAEDTAVYYCAKGGILMAGTLDYWGQGTLVTVSS
VL: B2 VL with A20T, T25A, I29V, N31T, L32Y, E45K, P51A, R63S, Y87F
notes: also called mAb42; mAb042
B4: 40C4C6 fully human CTLA-4 antibody (human IgG1, kappa) (antibody, V domains shown)
VH: QVQLVESGGGVVQPGRSLRLSCAASGFTFSSYGMHWVRQAPGKGLEWVAVIWYDGRNKYYADSVKGRFTISRDNSKNTLYLQMNSLRAEDTAVYYCARASGSYSYYFDYWGQGTLVTVSS
VL: DIQMTQSPSSLSASVGGRVTITCRASQSISSFLNWYQHELGKAPKLLIYGASSLQSGVPSRFSGSGSGTDFTLTISSLQPEDFATYYCQQTYSTPFTFGPGTKVDIK
notes: also called mAb09; mAb009

What is called Kd is the equilibrium constant for the complex coming apart. Usually koff stands for a measure of how fast the partners let go of each other. What is called kon is the rate constant with which the complex forms.

Substitutions are numbered along the chain they refer to.

The first experiment concerns the target T1, CTLA-4 on human T lymphocytes (PBMC, CD3+ T cells) (human, UniProt P16410 36-223).
T1 sequence (looked up): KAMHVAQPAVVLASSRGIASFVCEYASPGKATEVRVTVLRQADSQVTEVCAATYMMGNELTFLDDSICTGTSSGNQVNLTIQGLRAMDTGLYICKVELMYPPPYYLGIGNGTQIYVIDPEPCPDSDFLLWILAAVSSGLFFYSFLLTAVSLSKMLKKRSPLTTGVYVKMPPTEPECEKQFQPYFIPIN
Put plainly: cell-based or functional assay.
For B1, the “IL-2 secretion, pg/ml, at 0.13 ug/ml, N = 1” value is 1520 pg/mL; the “IL-2 secretion, pg/ml, at 0.13 ug/ml, N = 2” value is 1500 pg/mL; the “IL-2 secretion, pg/ml, at 0.37 ug/ml, N = 1” value stood at 2110 pg/mL; the “IL-2 secretion, pg/ml, at 0.37 ug/ml, N = 2” value is 1960 pg/mL. In addition, the “IL-2 secretion, pg/ml, at 1.1 ug/ml, N = 1” value is 2660 pg/mL; the “IL-2 secretion, pg/ml, at 1.1 ug/ml, N = 2” value amounted to 2610 pg/mL; the “IL-2 secretion, pg/ml, at 3.3 ug/ml, N = 1” value came to 4660 pg/mL; the “IL-2 secretion, pg/ml, at 3.3 ug/ml, N = 2” value is 3330 pg/mL. Moreover, the “IL-2 secretion, pg/ml, at 10 ug/ml, N = 1” value worked out at 5080 pg/mL; the “IL-2 secretion, pg/ml, at 10 ug/ml, N = 2” value came out at 5560 pg/mL; the “IL-2 secretion, pg/ml, at 30 ug/ml, N = 1” value was determined as 6090 pg/mL; the “IL-2 secretion, pg/ml, at 30 ug/ml, N = 2” value was determined as 7540 pg/mL.

With B2, the “IL-2 secretion, pg/ml, at 0.13 ug/ml, N = 1” value was 1660 pg/mL; the “IL-2 secretion, pg/ml, at 0.13 ug/ml, N = 2” value came out at 1630 pg/mL; the “IL-2 secretion, pg/ml, at 0.37 ug/ml, N = 1” value worked out at 1760 pg/mL; the “IL-2 secretion, pg/ml, at 0.37 ug/ml, N = 2” value came out at 2000 pg/mL. The “IL-2 secretion, pg/ml, at 1.1 ug/ml, N = 1” value turned out to be 2650 pg/mL; the “IL-2 secretion, pg/ml, at 1.1 ug/ml, N = 2” value stood at 3630 pg/mL; the “IL-2 secretion, pg/ml, at 3.3 ug/ml, N = 1” value came to 4420 pg/mL; the “IL-2 secretion, pg/ml, at 3.3 ug/ml, N = 2” value was 3330 pg/mL. In addition, the “IL-2 secretion, pg/ml, at 10 ug/ml, N = 1” value turned out to be 5020 pg/mL; the “IL-2 secretion, pg/ml, at 10 ug/ml, N = 2” value amounted to 3810 pg/mL; the “IL-2 secretion, pg/ml, at 30 ug/ml, N = 1” value stood at 5920 pg/mL; the “IL-2 secretion, pg/ml, at 30 ug/ml, N = 2” value was 7370 pg/mL.

On to B3, for which the “IL-2 secretion, pg/ml, at 0.13 ug/ml, N = 1” value is 1570 pg/mL; the “IL-2 secretion, pg/ml, at 0.13 ug/ml, N = 2” value was 1390 pg/mL; the “IL-2 secretion, pg/ml, at 0.37 ug/ml, N = 1” value was determined as 2810 pg/mL; the “IL-2 secretion, pg/ml, at 0.37 ug/ml, N = 2” value came out at 1860 pg/mL. The “IL-2 secretion, pg/ml, at 1.1 ug/ml, N = 1” value was determined as 3610 pg/mL; the “IL-2 secretion, pg/ml, at 1.1 ug/ml, N = 2” value stood at 2930 pg/mL; the “IL-2 secretion, pg/ml, at 3.3 ug/ml, N = 1” value amounted to 4860 pg/mL; the “IL-2 secretion, pg/ml, at 3.3 ug/ml, N = 2” value was 3490 pg/mL. In addition, the “IL-2 secretion, pg/ml, at 10 ug/ml, N = 1” value turned out to be 6670 pg/mL; the “IL-2 secretion, pg/ml, at 10 ug/ml, N = 2” value was determined as 5200 pg/mL; the “IL-2 secretion, pg/ml, at 30 ug/ml, N = 1” value stood at 7240 pg/mL; the “IL-2 secretion, pg/ml, at 30 ug/ml, N = 2” value was 6590 pg/mL.

B4: the “IL-2 secretion, pg/ml, at 0.13 ug/ml, N = 1” value was determined as 2140 pg/mL; the “IL-2 secretion, pg/ml, at 0.13 ug/ml, N = 2” value came to 1830 pg/mL; the “IL-2 secretion, pg/ml, at 0.37 ug/ml, N = 1” value was found to be 2370 pg/mL; the “IL-2 secretion, pg/ml, at 0.37 ug/ml, N = 2” value worked out at 2160 pg/mL. For the same molecule, the “IL-2 secretion, pg/ml, at 1.1 ug/ml, N = 1” value turned out to be 3200 pg/mL; the “IL-2 secretion, pg/ml, at 1.1 ug/ml, N = 2” value amounted to 3010 pg/mL; the “IL-2 secretion, pg/ml, at 3.3 ug/ml, N = 1” value is 3770 pg/mL; the “IL-2 secretion, pg/ml, at 3.3 ug/ml, N = 2” value came out at 3620 pg/mL. For the same molecule, the “IL-2 secretion, pg/ml, at 10 ug/ml, N = 1” value amounted to 5270 pg/mL; the “IL-2 secretion, pg/ml, at 10 ug/ml, N = 2” value came to 4810 pg/mL; the “IL-2 secretion, pg/ml, at 30 ug/ml, N = 1” value amounted to 6840 pg/mL; the “IL-2 secretion, pg/ml, at 30 ug/ml, N = 2” value is 7410 pg/mL.

The target of the next experiment is T2, recombinant His-labeled hCTLA-4 ECD protein (human, UniProt P16410 36-161).
T2 construct: extracellular domain; also called human CTLA-4 ECD; not shown: His label
T2 sequence (looked up): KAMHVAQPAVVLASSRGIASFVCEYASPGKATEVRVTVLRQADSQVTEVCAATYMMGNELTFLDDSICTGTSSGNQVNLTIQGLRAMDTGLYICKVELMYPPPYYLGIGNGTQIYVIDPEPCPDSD
Put plainly: SPR Biacore T200, antibody captured by anti-human Fc, 1:1 model. The protocol: Anti-human Fc IgG was fixed on flow cell 1 and 2. HBS-EP+ (10 mmol/L HEPES, 150 mmol/L NaCl, 3 mM EDTA, 0.05% P20, pH 7.4) was used as the running buffer, and anti-human Fc IgG was fixed using the fixing wizard template. The flow cells 1 and 2 connected in series with S CM5 sensor chip were activated with freshly mixed 50 mmol/L NHS and 200 mmol/L EDC. Anti-human Fc IgG was diluted to […] with 10 mmol/L NaAC (pH 4.5) and injected into activated flow cells 1 and 2. The remaining active coupling sites were blocked with 1 mol/L ethanolamine.
The recombinant His-labeled hCTLA-4 ECD protein was diluted to 50 nmol/L, and then serially diluted 4 times with HBS-EP+ buffer at a 2-fold ratio. […] Each antibody was injected into the CM5 sensor flow cell 2 at a flow rate of 10 μL/min to achieve a response of 230 RU. Then the prepared His-labeled hCTLA-4ECD protein was injected into flow cells 1 and 2 at a flow rate of 30 μL/min for 180 seconds. The buffer flow was maintained for 400 seconds for dissociation measurement (30 μL/min). To remove the tested antibody from the surface, 10 mmol/L glycine-HCl pH1.5 was injected for 20 seconds (30 μL/min). Flow cell 1 was used as a reference flow cell. The above steps were repeated for each concentration of serially diluted His-labeled CTLA-4ECD protein. The KD value of each antibody was evaluated using Biacore T200 evaluation software 1.0, and a 1:1 binding model was used to fit the data.
(In general: SPR reads the build-up and loss of mass on a sensor chip optically.)
On to B1, for which the Kd was 2.15 nM, the off-rate (koff) amounted to 0.00087 s⁻¹ and the on-rate (kon) was determined as 405000 M⁻¹ s⁻¹.

As for B2, the Kd was 2.62 nM, the koff is 0.00118 s⁻¹ and the on-rate (kon) amounted to 450000 M⁻¹ s⁻¹.

Turning to B3, the Kd was 2.52 nM, the koff turned out to be 0.00187 s⁻¹ and the kon came out at 744000 M⁻¹ s⁻¹.

As to B4, the Kd is 2.36 nM, the koff was determined as 0.0017 s⁻¹ and the kon worked out at 720000 M⁻¹ s⁻¹.

In a further experiment the target is T3, CTLA-4-hFc (immunogen A; hFc-labeled CTLA-4 extracellular domain protein) (human, UniProt P16410 36-161).
T3 construct: range 36-161; Made in HEK293 cells, purified on protein A; also called CLTA-4-hFc; CTLA-4 protein; not shown: human IgG Fc fragment (hFc) of the pCpC vector
T3 sequence (looked up): T2 sequence (looked up)
The experiment in a line: receptor-ligand blocking assay: CTLA-4 protein, antibody titrated, blocked ligand B7.1, inhibition (%). The protocol: CTLA-4 extracellular domain protein (CTLA-4-hFc) was diluted with PBS to a final concentration of 1.0 μg/mL, and then added to a 96-well ELISA plate as 100 μl per well. The plate was covered with a plastic film and incubated overnight at 4° C. The plate was washed twice with plate washing solution [PBS containing 0.01% (v/v) Tween 20] on the next day, and added with blocking solution [PBS containing 0.01% (v/v) Tween 20 and 1% (w/w) BSA] and blocked at room temperature for 2 hours. […] After 2 hours, the plate was washed 3 times with a plate washing solution [PBS containing 0.01% (v/v) Tween 20]. HRP (horseradish peroxidase) labeled avidin diluent (purchased from Sigma) was added 100 microliters per well, and after the plate was incubated for 2 hours at 37° C., it was washed with plate washing solution [PBS containing 0.01% (v/v) Tween 20] for 3 times. […] TMB substrate was added to each well. After incubated at room temperature for 30 minutes, the plate was added with […] stop solution (1.0N HCl) to each well. An ELISA plate reader (SpectraMax 384plus, Molecular Device) was used to read the A450 nm value.
With B1, the “IC50 (read off the curve)” value was in the range of 1 to 2 nM.

For B3, the “IC50 (read off the curve)” value is 1 to 2 nM.
